Earlier results on one molecule are cited in patent publication US20080279771A1, “Novel Imaging Agents for Cancer” (GE HEALTHCARE LIMITED, priority 2005, published 2008).

The target of this series is neuropilin-1 receptor (NP-1) (Homo sapiens, UniProt O14786). The conditions noted are these: NP-1 on tumour cells; read-out: Kd of binding of SEM-3A to NP-1.
neuropilin-1 receptor (NP-1), sequence (O14786 22-923): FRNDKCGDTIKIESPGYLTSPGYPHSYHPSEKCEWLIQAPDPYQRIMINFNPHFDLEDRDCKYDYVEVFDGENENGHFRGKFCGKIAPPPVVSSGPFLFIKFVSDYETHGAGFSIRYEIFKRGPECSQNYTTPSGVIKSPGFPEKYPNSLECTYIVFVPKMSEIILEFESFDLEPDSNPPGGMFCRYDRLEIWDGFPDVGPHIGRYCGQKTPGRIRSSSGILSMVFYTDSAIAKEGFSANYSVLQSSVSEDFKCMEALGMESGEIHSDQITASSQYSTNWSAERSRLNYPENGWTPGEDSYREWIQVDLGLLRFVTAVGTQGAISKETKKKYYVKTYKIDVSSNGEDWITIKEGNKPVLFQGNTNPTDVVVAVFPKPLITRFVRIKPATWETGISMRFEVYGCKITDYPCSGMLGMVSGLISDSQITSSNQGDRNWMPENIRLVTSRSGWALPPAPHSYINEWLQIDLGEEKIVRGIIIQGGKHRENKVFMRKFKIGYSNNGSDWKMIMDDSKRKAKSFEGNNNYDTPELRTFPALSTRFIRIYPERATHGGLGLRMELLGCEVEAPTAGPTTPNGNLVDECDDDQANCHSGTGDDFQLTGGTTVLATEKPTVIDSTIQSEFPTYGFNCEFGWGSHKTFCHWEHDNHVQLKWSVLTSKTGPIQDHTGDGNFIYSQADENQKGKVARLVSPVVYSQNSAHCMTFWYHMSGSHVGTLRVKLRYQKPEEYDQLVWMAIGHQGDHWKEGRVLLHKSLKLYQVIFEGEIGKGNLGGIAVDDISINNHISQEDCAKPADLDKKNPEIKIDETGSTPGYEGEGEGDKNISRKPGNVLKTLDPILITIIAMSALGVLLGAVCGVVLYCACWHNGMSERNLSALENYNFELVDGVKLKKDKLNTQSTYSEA

B1: SEM-3A: Semaphorin-3A, biological peptide that binds the neuropilin-1 receptor; human precursor form consists of 771 amino acids (protein, UniProt Q14563 21-771, looked up)
Semaphorin-3A: NYQNGKNNVPRLKLSYKEMLESNNVITFNGLANSSSYHTFLLDEERSRLYVGAKDHIFSFDLVNIKDFQKIVWPVSYTRRDECKWAGKDILKECANFIKVLKAYNQTHLYACGTGAFHPICTYIEIGHHPEDNIFKLENSHFENGRGKSPYDPKLLTASLLIDGELYSGTAADFMGRDFAIFRTLGHHHPIRTEQHDSRWLNDPKFISAHLISESDNPEDDKVYFFFRENAIDGEHSGKATHARIGQICKNDFGGHRSLVNKWTTFLKARLICSVPGPNGIDTHFDELQDVFLMNFKDPKNPVVYGVFTTSSNIFKGSAVCMYSMSDVRRVFLGPYAHRDGPNYQWVPYQGRVPYPRPGTCPSKTFGGFDSTKDLPDDVITFARSHPAMYNPVFPMNNRPIVIKTDVNYQFTQIVVDRVDAEDGQYDVMFIGTDVGTVLKVVSIPKETWYDLEEVLLEEMTVFREPTAISAMELSTKQQQLYIGSTAGVAQLPLHRCDIYGKACAECCLARDPYCAWDGSACSRYFPTAKRRTRRQDIRNGDPLTHCSDLHHDNHHGHSPEERIIYGVENSSTFLECSPKSQRALVYWQFQRRNEERKEEIRVDDHIIRTDQGLLLRSLQQKDSGNYLCHAVEHGFIQTLLKVTLEVIDTEHLEELLHKDDDGDGSKTKEMSNSMTPSQKVWYRDFMQLINHPNLNTMDEFCEQVWKRDRKQRRQRPGHTPGNSNKWKHLQENKKGRNRRTHEFERAPRSV
What is called Kd is the equilibrium constant for the complex coming apart. As for B1, the Kd was ~0.28 nM.
